Measured values: paper PMC3478855

Legend:
Test in all cases: SPR
[1] = system: inactivated AIV H5N1 whole virus (HA on virion) (Influenza A virus H5N1); conditions: biotin, PBS 10 mM pH 7.4, temperature not stated
[2] = system: inactivated AIV H5N2 whole virus (Influenza A virus H5N2); conditions: biotin, PBS 10 mM pH 7.4, temperature not stated
[3] = system: inactivated AIV H1N1 whole virus (Influenza A virus H1N1); conditions: biotin, PBS 10 mM pH 7.4, temperature not stated
[4] = system: inactivated AIV H9N2 whole virus (Influenza A virus H9N2); conditions: biotin, PBS 10 mM pH 7.4, temperature not stated
[5] = system: inactivated AIV H2N2 whole virus (Influenza A virus H2N2); conditions: biotin, PBS 10 mM pH 7.4, temperature not stated
[6] = system: inactivated AIV H7N2 whole virus (Influenza A virus H7N2); conditions: biotin, PBS 10 mM pH 7.4, temperature not stated
[7] = system: AIV H5N9 whole virus (Influenza A virus H5N9); conditions: biotin, PBS 10 mM pH 7.4, temperature not stated
[8] = system: hemagglutinin (HA) of AIV H5N1, purified (Influenza A virus H5N1); conditions: PBS 10 mM pH 7.4, temperature not stated; cited from earlier work

| Sequence | binding signal [1] [RI 10^-6] | binding signal [2] [RI 10^-6] | binding signal [3] [RI 10^-6] | binding signal [4] [RI 10^-6] | binding signal [5] [RI 10^-6] | binding signal [6] [RI 10^-6] | binding signal [7] [RI 10^-6] | Kd [8] [nM] |
| --- | --- | --- | --- | --- | --- | --- | --- | --- |
| GTGTGCATGGATAGCACGTAACGGTGTAGTAGATACGTGCGGGTAGGAAGAAAGGGAAATAGTTGTCCTGTTG [H5N1 DNA aptamer, biotinylated (sensor)] | 262 | 10 | -4 | 2 | -1 | 7 | 3 |  |
| GTGTGCATGGATAGCACGTAACGGTGTAGTAGATACGTGCGGGTAGGAAGAAAGGGAAATAGTTGTCCTGTTG [H5N1 DNA aptamer, best candidate (previous study)] |  |  |  |  |  |  |  | 4.65 |
